Data reported in patent publication US20210147504A1 (Bayer, published 2021).

T1: rat CNP receptor (NPR-B) (rat, UniProt P16067 17-1047)
T1 sequence (looked up): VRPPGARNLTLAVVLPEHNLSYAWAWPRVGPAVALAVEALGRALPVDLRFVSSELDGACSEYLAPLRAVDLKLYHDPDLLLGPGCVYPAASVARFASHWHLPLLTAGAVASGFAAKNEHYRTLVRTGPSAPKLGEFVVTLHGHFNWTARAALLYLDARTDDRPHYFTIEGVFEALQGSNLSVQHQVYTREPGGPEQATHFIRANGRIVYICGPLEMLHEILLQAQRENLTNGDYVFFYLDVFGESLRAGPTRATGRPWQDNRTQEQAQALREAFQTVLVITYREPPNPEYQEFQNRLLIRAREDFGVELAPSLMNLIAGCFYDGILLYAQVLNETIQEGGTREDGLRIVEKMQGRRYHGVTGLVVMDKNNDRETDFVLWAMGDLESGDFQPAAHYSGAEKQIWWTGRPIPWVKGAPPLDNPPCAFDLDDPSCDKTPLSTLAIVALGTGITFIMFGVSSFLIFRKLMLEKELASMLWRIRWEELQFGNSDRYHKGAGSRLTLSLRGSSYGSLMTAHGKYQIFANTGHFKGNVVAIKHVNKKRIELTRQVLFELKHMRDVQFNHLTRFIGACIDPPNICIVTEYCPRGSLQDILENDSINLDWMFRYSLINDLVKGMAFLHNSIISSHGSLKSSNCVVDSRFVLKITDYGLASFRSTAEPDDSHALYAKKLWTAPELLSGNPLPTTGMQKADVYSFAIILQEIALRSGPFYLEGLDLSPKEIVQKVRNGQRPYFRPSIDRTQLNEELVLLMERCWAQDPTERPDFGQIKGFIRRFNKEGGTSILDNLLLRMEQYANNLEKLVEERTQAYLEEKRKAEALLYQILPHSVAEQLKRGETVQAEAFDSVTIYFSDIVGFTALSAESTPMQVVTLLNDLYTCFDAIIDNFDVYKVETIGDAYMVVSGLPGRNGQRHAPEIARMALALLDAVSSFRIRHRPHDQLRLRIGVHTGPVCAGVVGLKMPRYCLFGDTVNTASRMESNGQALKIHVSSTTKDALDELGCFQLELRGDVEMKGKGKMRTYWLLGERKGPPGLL

T2: rat ANP receptor (NPR-A) (rat, UniProt P18910 29-1057)
T2 sequence (looked up): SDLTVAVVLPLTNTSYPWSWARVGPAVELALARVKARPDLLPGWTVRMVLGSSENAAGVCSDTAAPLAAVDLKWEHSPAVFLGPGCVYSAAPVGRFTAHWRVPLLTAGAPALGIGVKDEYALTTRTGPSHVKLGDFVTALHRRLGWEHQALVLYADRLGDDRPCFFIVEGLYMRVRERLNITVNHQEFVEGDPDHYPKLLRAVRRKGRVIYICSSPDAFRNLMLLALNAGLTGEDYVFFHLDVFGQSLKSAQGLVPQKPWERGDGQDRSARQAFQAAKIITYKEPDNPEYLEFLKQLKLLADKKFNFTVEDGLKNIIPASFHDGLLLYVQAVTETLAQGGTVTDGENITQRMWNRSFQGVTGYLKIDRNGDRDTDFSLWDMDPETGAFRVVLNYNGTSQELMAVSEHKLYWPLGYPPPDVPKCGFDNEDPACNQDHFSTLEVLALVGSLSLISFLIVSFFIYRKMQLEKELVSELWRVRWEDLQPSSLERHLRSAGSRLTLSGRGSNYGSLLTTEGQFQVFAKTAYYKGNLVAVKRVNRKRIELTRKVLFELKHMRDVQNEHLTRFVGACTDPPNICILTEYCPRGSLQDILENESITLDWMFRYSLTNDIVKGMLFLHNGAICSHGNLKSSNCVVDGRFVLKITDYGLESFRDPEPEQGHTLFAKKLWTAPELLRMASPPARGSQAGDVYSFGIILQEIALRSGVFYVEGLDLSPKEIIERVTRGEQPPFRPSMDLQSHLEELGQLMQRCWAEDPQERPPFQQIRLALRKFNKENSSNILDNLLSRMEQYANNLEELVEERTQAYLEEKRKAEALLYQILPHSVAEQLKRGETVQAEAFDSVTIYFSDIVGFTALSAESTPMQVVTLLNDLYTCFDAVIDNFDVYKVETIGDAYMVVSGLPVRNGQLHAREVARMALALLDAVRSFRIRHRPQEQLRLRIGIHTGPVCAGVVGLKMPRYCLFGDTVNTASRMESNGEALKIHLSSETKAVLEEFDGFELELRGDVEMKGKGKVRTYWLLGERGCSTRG

T3: human NPRA (hNPRA) (human, UniProt P16066 33-1061)
T3 sequence (looked up): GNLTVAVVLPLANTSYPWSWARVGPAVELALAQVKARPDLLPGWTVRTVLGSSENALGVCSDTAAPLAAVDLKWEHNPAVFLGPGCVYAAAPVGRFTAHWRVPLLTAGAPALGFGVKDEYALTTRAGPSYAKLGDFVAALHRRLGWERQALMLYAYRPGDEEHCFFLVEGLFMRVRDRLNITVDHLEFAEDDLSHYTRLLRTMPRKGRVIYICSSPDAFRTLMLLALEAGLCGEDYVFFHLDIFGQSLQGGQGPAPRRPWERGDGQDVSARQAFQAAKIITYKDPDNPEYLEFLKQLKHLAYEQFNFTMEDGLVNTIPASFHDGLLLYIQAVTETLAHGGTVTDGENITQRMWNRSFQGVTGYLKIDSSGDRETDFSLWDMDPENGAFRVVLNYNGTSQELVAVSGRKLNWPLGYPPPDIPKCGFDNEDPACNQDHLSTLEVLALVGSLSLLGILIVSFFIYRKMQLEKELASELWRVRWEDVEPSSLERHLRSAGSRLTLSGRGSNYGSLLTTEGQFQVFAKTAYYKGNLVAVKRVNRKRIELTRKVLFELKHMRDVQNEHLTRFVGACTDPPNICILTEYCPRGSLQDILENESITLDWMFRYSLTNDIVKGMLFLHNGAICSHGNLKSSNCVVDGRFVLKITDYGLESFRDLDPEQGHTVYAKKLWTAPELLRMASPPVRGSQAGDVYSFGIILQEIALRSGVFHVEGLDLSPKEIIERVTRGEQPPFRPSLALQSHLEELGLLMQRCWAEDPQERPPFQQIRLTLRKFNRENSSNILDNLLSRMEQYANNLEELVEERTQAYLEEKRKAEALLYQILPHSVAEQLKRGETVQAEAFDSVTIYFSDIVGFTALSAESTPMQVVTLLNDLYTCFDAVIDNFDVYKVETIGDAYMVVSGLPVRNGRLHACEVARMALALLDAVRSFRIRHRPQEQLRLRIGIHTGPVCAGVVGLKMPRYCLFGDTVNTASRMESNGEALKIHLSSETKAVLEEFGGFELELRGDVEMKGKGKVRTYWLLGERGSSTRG


Tests used:
Assay in all cases: cell-based or functional assay
rat CNP receptor (NPR-B) = target: T1, rat CNP receptor (NPR-B)
rat ANP receptor (NPR-A) = target: T2, rat ANP receptor (NPR-A)
human NPRA (hNPRA) = target: T3, human NPRA (hNPRA)

Binder | EC50, luminescence signal of rat NPR-B cGMP reporter cell line (rat CNP receptor (NPR-B)) | EC50, fluorescence signal of rat NPR-A cGMP reporter CHO cell line (GCaMP6/CNGA2) (rat ANP receptor (NPR-A)) | log EC50, cGMP quantification assay, isolated compound sample (ics) on stable hNPRA-CHO k1 cells (human NPRA (hNPRA)) | log EC50, cGMP quantification assay, purified compound sample (pcs) on stable hNPRA-CHO k1 cells (human NPRA (hNPRA)) | log EC50, cGMP quantification assay, purified compound sample (pcs) on transient hNPRA-HEK293 cells (human NPRA (hNPRA))
TPP-12897 (antibody) heavy: not shown light: QSVLTQPPSVSGAPGQRVTISCTGSSSNIGAGYDVHWYQQLPGTAPKLLIYGNSNRPSGVPDRFSGSKSGTSASLAITGLQAEDEADYYCQSYDSSLDGVVFGGGTKLTVLGQPKAAPSVTLFPPSSEELQANKATLVCLISDFYPGAVTVAWKADSSPVKAGVETTTPSKQSNNKYAASSYLSLTPEQWKSHRSYSCQVTHEGSTVEKTVAPTECS | 10 nM | – | – | – | –
TPP-5661 (antibody) heavy: not shown light: QSVLTQPPSVSGAPGQRVTISCTGSSSNIGAGYDVHWYQQLPGTAPKLLIYGNSNRPSGVPDRFSGSKSGTSASLAITGLQAEDEADYYCQSYDSSLSGVVFGGGTKLTVLGQPKAAPSVTLFPPSSEELQANKATLVCLISDFYPGAVTVAWKADSSPVKAGVETTTPSKQSNNKYAASSYLSLTPEQWKSHRSYSCQVTHEGSTVEKTVAPTECS | – | 17 nM | -8.8 log EC50 | -9.2 log EC50 | -9 log EC50

Further lines, results first:

EC50, luminescence signal of rat NPR-B cGMP reporter cell line (rat CNP receptor (NPR-B)) | EC50, fluorescence signal of rat NPR-A cGMP reporter CHO cell line (GCaMP6/CNGA2) (rat ANP receptor (NPR-A)) | log EC50, cGMP quantification assay, isolated compound sample (ics) on stable hNPRA-CHO k1 cells (human NPRA (hNPRA)) | log EC50, cGMP quantification assay, purified compound sample (pcs) on stable hNPRA-CHO k1 cells (human NPRA (hNPRA)) | log EC50, cGMP quantification assay, purified compound sample (pcs) on transient hNPRA-HEK293 cells (human NPRA (hNPRA)) | Binder
5.2 nM | – | – | – | – | TPP-9465 (antibody) heavy: not shown light: QSVLTQPPSVSGAPGQRVTISCTGSSSNIGAGYDVHWYQQLPGTAPKLLIYGNSNRPSGVPDRFSGSKSGTSASLAITGLQAEDEADYYCQSYDSSLSGVVFGGGTKLTVLGQPKAAPSVTLFPPSSEELQANKATLVCLISDFYPGAVTVAWKADSSPVKAGVETTTPSKQSNNKYAASSYLSLTPEQWKSHRSYSCQVTHEGSTVEKTVAPTECS
4.1 nM | – | – | – | – | TPP-12377 (antibody) heavy: not shown light: QSVLTQPPSVSGAPGQRVTISCTGSSSNIGAGYDVHWYQQLPGTAPKLLIYGNSNRPSGVPDRFSGSKSGTSASLAITGLQAEDEADYYCQSYDSSLSGVVFGGGTKLTVLGQPKAAPSVTLFPPSSEELQANKATLVCLISDFYPGAVTVAWKADSSPVKAGVETTTPSKQSNNKYAASSYLSLTPEQWKSHRSYSCQVTHEGSTVEKTVAPTECS
